# Tests used:
# [1] = biological target: T1, cy-CD96 (soluble, extracellular domain) (cynomolgus monkey, UniProt P40200 22-516 (human entry), biotinylated in Octet and blocking ELISA); assay: SPR 25C, IgG on Protein A, CD96 analyte
# T1 construct: the assays name only cy-CD96; also called biotinylated cy-CD96
# T1 chain: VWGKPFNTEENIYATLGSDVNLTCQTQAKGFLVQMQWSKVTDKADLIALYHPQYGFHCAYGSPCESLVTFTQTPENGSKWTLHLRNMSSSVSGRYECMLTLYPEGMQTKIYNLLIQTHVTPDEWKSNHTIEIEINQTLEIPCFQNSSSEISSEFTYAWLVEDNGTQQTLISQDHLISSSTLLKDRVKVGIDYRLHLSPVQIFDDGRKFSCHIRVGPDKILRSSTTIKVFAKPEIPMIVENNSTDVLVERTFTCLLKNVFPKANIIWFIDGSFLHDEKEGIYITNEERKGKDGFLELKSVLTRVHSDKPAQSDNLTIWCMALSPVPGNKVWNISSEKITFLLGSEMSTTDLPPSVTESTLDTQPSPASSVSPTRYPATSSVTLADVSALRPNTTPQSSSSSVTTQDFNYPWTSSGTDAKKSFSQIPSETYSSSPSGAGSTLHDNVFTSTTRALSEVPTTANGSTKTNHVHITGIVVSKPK
# Protocol: SPR measurement with a BIACORE™ 8K instrument was performed to determine the monovalent binding affinity of mAb1.v7 and h10G1 IgG to hu-CD96, cy-CD96, and mo-CD96. Briefly, antibodies were diluted at 0.5 µg/mL in HBS-P buffer (0.01 M HEPES pH 7.4, 0.15 M NaCl, 0.005% Surfactant P20) and applied to the Protein A chip at 30 µL/min flow rate for 60 s in flow cell 2 (FC2). Then 3-fold serial dilutions of hu-CD96, cy-CD96, or mo-CD96 in HBS-P buffer (0.01 M HEPES pH 7.4, 0.15 M NaCl, 0.005% surfactant P20) from (0.4 nM) to high (100 nM) were injected (flow rate: 30 µL/min) at 25° C. to both flow cell 1 (FC1) and flow cell 2 (FC2). The sensorgram was recorded and subject to reference and buffer subtraction before evaluating by BIACORE® 8K Evaluation Software (version 1.1.1.7442). Association rates ($kon$) and dissociation rates ($koff$) were calculated using a simple one-to-one Langmuir binding model.
# [2] = biological target: T2, hu-CD96 (soluble, isoform 2 extracellular domain) (human, UniProt P40200 22-516, biotinylated in Octet and blocking ELISA); assay: CD155 blocking ELISA
# T2 construct: the assays name only hu-CD96; also called hCD96; biotinylated hu-CD96
# T2 sequence: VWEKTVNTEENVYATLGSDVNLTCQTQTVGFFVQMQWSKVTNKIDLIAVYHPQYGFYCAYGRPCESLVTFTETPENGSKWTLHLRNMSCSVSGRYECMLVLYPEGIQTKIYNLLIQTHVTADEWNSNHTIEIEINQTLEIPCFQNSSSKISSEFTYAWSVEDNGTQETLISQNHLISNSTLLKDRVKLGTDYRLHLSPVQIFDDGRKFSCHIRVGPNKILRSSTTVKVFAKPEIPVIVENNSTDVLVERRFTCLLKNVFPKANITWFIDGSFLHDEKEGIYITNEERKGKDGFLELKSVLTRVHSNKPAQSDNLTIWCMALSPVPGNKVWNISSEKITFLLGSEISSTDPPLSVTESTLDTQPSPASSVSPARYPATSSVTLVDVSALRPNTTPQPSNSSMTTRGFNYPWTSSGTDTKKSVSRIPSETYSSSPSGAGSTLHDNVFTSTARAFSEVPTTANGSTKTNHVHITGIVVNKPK
# [3] = biological target: T2, hu-CD96 (soluble, isoform 2 …); assay: BLI (Octet), biotin-CD96 on SA, Fab analyte
Binder,Kd [1] [nM],apparent IC50 (pooled screen) [2] [nM],apparent Kd (pooled screen) [3] [nM]
"h10G1 IgG (humanized 10G1) (antibody, V domains shown, human IgG1 N297G) VH: EIQLVQSGSELKKPGASVKVSCKASGYPFTTYGMSWVRQAPGQGLEWMGWINTDSGVPTYADDFKGRFVFSLDTSVSTAYLQISSLKAEDTAVYFCARNIYYGWGNFDYWGQGTLVTVSS VL: EIVMTQSPDFQSVTPKEKVTITCRASQDIYRNLHWYQQKPDQTPKLLIKHASDSISGIPSRFSGSGSGTDFTLTINSLEAEDAAAYYCLQGYSMPYTFGGGTKVEIKG",0.74,,
"mAb1.v7 Fab (Fab, V domains shown) VH: EVQLVQSGAEVKKPGASVKVSCKASGFTFTNNWMHWVRQAPGQGLEWIGMIHPNSGITNINEKFKNRVTMTTDTSTSTAYMELRSLRSEDTAVYYCRSDGTYEGYFDYWGQGTLVTVSS VL: DIQLTQSPSSLSASVGDRVTITCKASQNVGTAIVWYQQKPGKAPKVLIYSASTRYTGVPSRFSGSGSGTDFTLTISSLQPEDFATYYCQQYSSSPLTFGQGTKVEIK",,0.74,76
